# Test results: the nanobody polyreactivity screen of Harvey et al. (2022)
# Experiment: yeast display, Sf9 membrane polyspecificity reagent, FACS + sequencing; frameworks hold sequencing errors
# How it was run: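 After 36–48 hours of galactose induction, yeast (Saccharomyces cerevisiae BJ5465) displaying a synthetic nanobody library were stained at 4 °C for 1 hour with 10% biotinylated, detergent-solubilized Sf9 membrane reagent. Streptavidin microbeads enriched the stained cells before FACS sorting into low and high (top ~1%) gates on anti-HA and streptavidin fluorescence. Each clone's polyreactivity label reflects its gate of origin.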
row,Sequence,polyreactivity (PSR sort gate)
1,QVQLVESGGGLVQAGGSLRLSCAASGSTFGHYAMGWYRQAPGKERELVAAITWSGGSTYYADSVKGRFTISRDNAKNTVYLQMNSLKPEDTAVYYCNAVTRRSAQVGHDYWGQGTQVTVSS,high polyreactivity
2,QVQLVESGGGLVQAGGSLRLSCAASGSTFGHYAMGWYRQAPGKERELVAGITDTDNHELRRLCEGRFTISRDNAKNTVYLQMTSLKPEDTAVYYCNADDTYYPLGGITGYDYWGQGTQVTVSS,low polyreactivity
3,QVQLVESGGGLVQAGGSLRLSCAASGSTFGHYAMGWYRQAPGKERELVAGITYTDNHELRRLCEGRFTISRDNAKNTVYLQMNSLKPEDTAVYYCNADDTYYPLGGITGYDYWGQGTQVTVSS,low polyreactivity
4,QVQLVESGGGLVQAGGSLRLSCAASGSTFGIYAMGWYRPAPGKERELVAAISSGGSTNYADSVKGRFTISRDNAKNTVYLQMNCLKPEDSAVYYCAVESVYEYGGYVDSAYDYWGQGTQVTVSS,low polyreactivity
5,QVQLVESGGGLVQAGGSLRLSCAASGSTFGIYVMGWYRQAPGKERELVATISSSGGRTYYADSVKGRFTISRDNAKNTVYLQMNSLKPEDTAVYYCAADGYIDISPGYYYTYDYWGQGTQVTVSS,low polyreactivity
6,QVQLVESGGGLVQAGGSLRLSCAASGSTFGKNAMGWYRQAPGKERELVAAITRRGGSTNYADSVKGRFTISRDNAKNTVYLQINSLKPEDTAVYYCAASWGRTSSKPFDYWGQGTQVTVSS,high polyreactivity
7,QVQLVESGGGLVQAGGSLRLSCAASGSTFGLNALGWYRQAPGKERELVAAISTSGGSTYYADSVKGRFTISRDNAKNTVFLQMNSLNPEDTAVYYCAADVVAGYDYSQYYYWGQGTQVTVSS,low polyreactivity
8,QVQLVESGGGLVQAGGSLRLSCAASGSTFGLNAMGWYRQAPGKERELVAAISTSGGSTYYADSVKGRFTISRDNAKNTVYLQMNSLKPEDTAVYYCAAEVVAGYDYSQYYYWGQGTQVTVSS,low polyreactivity
9,QVQLVESGGGLVQAGGSLRLSCAASGSTFGLYAMGWYRQAPGKERELVADITWSGGSTYYADSVKGRFTISRDNAKNTVYLQMNSLKPEDTAVYYCAARYPWVYYDFDYWGQGTQVTVSS,low polyreactivity
10,QVQLVESGGGLVQAGGSLRLSCAASGSTFGNAMGWYTQAPGKEREWVAAISSRGDRTYYADSVKGRFTISRDNAKNTGYLQMNSLKPEDTAVYYCAKDGYPNKYDYWGQGTQVTVSS,high polyreactivity
11,QVQLVESGGGLVQAGGSLRLSCAASGSTFGNNAMGLYRQAPGKERELVASINWNGGSTYYADSVKGRFTISRDNAKITVYLQMNSLKPEDTAVYYCNARLYFVEGQDYYYWGQGTQVTVSS,low polyreactivity
12,QVQLVESGGGLVQAGGSLRLSCAASGSTFGNNAMGWYRQAPGKERELVASISWSSGRTYYADSVKGRFTISRDNAKNTVYLQMNSLKREDTAVYYCAAPLPVDVVWDRSAEVRYDYWGQGTQVTVSS,low polyreactivity
13,QVQLVESGGGLVQAGGSLRLSCAASGSTFGPNTMGWYRQAPGKERELVAAITTRGGRTYYADSVKGRFTISRDNAKNTVYLQMNSLKPEDTAVYYCAASAPYYGRGGLVGYWGQGTQVTVSS,high polyreactivity
14,QVQLVESGGGLVQAGGSLRLSCAASGSTFGPYAMGWYRQAPGKERELVATINSSGSTNYADSVKGRFTISRDNAKNTVYLQMNSLKPEDTAVYYCATLHYYYWYDYWGQGTQVTVSS,low polyreactivity
15,QVQLVESGGGLVQAGGSLRLSCAASGSTFGQYAMGWYRQAPGKERELVAAISRNGGRTYYADSVKGRFTISRDNAKNTVYLLMNSLKPEDTAVYYCAAGGFLYVYYRGMYYWGQGTQVTVSS,high polyreactivity
16,QVQLVESGGGLVQAGGSLRLSCAASGSTFGRNAMGWYRQAPGKERELVAAINWSDGSTHYADSVKGRFTISRDNAKNTVYLQMNSLKPEDTAVYYCAADAWSWPVDYNYWGQGTQVTVSS,low polyreactivity
17,QVQLVESGGGLVQAGGSLRLSCAASGSTFGRNAMGWYRQAPGKERELVASISRRGGSTYYADSVKGRFTISRDNAKNTVYLQMNSLKPEDTAVYYCNARYYFSDYGYWGQGTQVTVSS,high polyreactivity
18,QVQLVESGGGLVQAGGSLRLSCAASGSTFGRNAMGWYRQAPGKERELVASISWGGGSTYYADSVKVRFTISRDNAKNNVYLQMNSLKPEDTAVYYCAAGLAYWYWRGYDYWGQGTQVTVSS,high polyreactivity
19,QVQLVESGGGLVQAGGSLRLSCAASGSTFGRYAMGWYRQAPGKERELVAAISASGGSTYYADSVKGRFTISRDNAKNTVYLLMNSLKPEDTAVYYSAALIDVITGQYDYWGQGTQVTVSS,high polyreactivity
20,QVQLVESGGGLVQAGGSLRLSCAASGSTFGRYAMGWYRQAPGKERELVAAISPRGGSTYYADSVKGRFTISRDNAKNTVYLQMNSLKPEDTAVYYCATGYPIDLGREFDYWGQGIQVTVSS,high polyreactivity
21,QVQLVESGGGLVQAGGSLRLSCAASGSTFGRYAMGWYRQAPGKERELVAAISWSGGSTHYADSVKGRFTISRDNAKNTVYLQMNSLKPEDTAVYYCAAYTFYSYDYWGQGSQVTVSS,high polyreactivity
22,QVQLVESGGGLVQAGGSLRLSCAASGSTFGRYAMGWYRQAPGKERELVAAITSDTGNTNYADSVKGRFTISRDNAKNTVYLQMNSLKPEDTAVYYCAAATFWVLWGHVIGNYDSWGQGTQVTVSS,low polyreactivity

row,Sequence,polyreactivity (PSR sort gate)
1,QVQLVESGGGLVQAGGSLRLSCAASGSTFGRYAMGWYRQAPGKERELVAGISRGGTTYYADSVKGRFTISRDNAKNTVYLQLNSLKPEDTAVYYCAKLRWPVFDYWGQGTQVTVSS,high polyreactivity
2,QVQLVESGGGLVQAGGSLRLSCAASGSTFGRYAMGWYRQAPGKERELVARISWGGGSTYYADSVKGRFTISRDNAKNTVYLQMNSLKPEDTAVYYCATRVYRSAVSYDYWGQGTQVTVSS,high polyreactivity
3,QVQLVESGGGLVQAGGSLRLSCAASGSTFGRYVMGWYRQAPGKDRELVAAISKNAGSTYYADSVKGRFTISRDNAKNTVYLQMNSLKPEDTAVYYCAADWRTKGYDSLGQGTQVTVSS,high polyreactivity
4,QVQLVESGGGLVQAGGSLRLSCAASGSTFGSNAMGWYRPAPGKERELVAAITYSGGRTYYADSVKGRFTISRDNAKNTVYLQMNSLKPEDTAVYYCAATFGFFYYQYDYWGQGTQVTVSS,low polyreactivity
5,QVQLVESGGGLVQAGGSLRLSCAASGSTFGSYAMGWYRQAAGKERELVAGNSWSGGRTYYADSVKGRFTISRDNAKNTVYLQMNSLKPEDTAVYYCARDTGYYYARYNYWGQGTQVTVSS,low polyreactivity
6,QVQLVESGGGLVQAGGSLRLSCAASGSTFGSYAMGWYRQAPGKERELVAAITASGGSTYYADSVKGRFTISRDNAKNTGYLQMNSLKPEDTAVYYCATRWFAFPWDEYNYWGQGTQVTVSS,low polyreactivity
7,QVQLVESGGGLVQAGGSLRLSCAASGSTFGSYAMGWYRQAPGKERELVADISSRGASTYYADSVKGRFTISRDNAKNTVYFQMNSLKPEDTAVYYCARDVYIWYGYGYFPEYEYWGQGTQVTVSS,low polyreactivity
8,QVQLVESGGGLVQAGGSLRLSCAASGSTFGSYAMGWYRQAPGKERELVAGISWSGGRTYYADSVKGRFTISRDNAKNTVYLQMNSLKPEDTAVYYRARDTGYYYARYNYWGQGTQVTVSS,low polyreactivity
9,QVQLVESGGGLVQAGGSLRLSCAASGSTFGSYAMGWYRQAPGKERELVAVITGGGDTNYADSVKGRFTISRDNAKNTVYLQMNSLKPEDTAVYYCAAEGSFYRYHVGSDYWGQGTQLTVSS,low polyreactivity
10,QVQLVESGGGLVQAGGSLRLSCAASGSTFGSYGMGGYRQAPGKERELVAGITSSGSTYYADSVKGRFTISRDNAKNTVYLQMNSLKPDDTAVYYCNARSGIDWYYDNDYWGQGTQVTVSS,low polyreactivity
11,QVQLVESGGGLVQAGGSLRLSCAASGSTFGSYGMGWYRQSPGKERELVAGITSAGSTYYADSVKGRFTISRDNAKNTVYLQMNSLKPEDTAVYYCNARSGIVWYYDNDYWGQGTQVTVSS,low polyreactivity
12,QVQLVESGGGLVQAGGSLRLSCAASGSTFGTYAMGWYRQAPGKERELVAAISNSGGSTYYADSVKGRFTISRDNAKNTVYLQMNSLKPEDTAVYYCNTDGLVRNGPFYSWGQGTQVTVSS,low polyreactivity
13,QVQLVESGGGLVQAGGSLRLSCAASGSTFGTYGMGWSRQAPGKERESVADITSGGSTYYADSVKGRFTISRDNAKNTVYLQMNSLKPEDTAVYSCAASWFVWSTAVPYDYWGQGTQVTVSS,low polyreactivity
14,QVQLVESGGGLVQAGGSLRLSCAASGSTFGVNDMGWYRQAPWKERELVAAISRGAITNYADSVKGRFTISRDNAKNTVYLQMNSLKPEDTAVYYCAAGFVTYYVPQYKEYGYDYWGQGTQVTVSS,low polyreactivity
15,QVQLVESGGGLVQAGGSLRLSCAASGSTFGVYAMGWYRPAPGKERELVAAIRWSGGGTYYADSVKGRFTISRDNAKNTVYLQMNSLKPEDTAVYYCNTDILSIYAEPYYFTDVDYWGQGTQVTVSS,low polyreactivity
16,QVQLVESGGGLVQAGGSLRLSCAASGSTFGVYAMGWYRQAPGKERELVASITSGTSTYADSVKGRFTISRDNAKNTVYLQMNSLKPEDTAVYYCAAEYLYFNLGYDYWGQGTQVTVSS,low polyreactivity
17,QVQLVESGGGLVQAGGSLRLSCAASGSTFGWYAMGWYRQAPGIERELVATITSDSSTYYADSVKGRFTISRDNAKNTVYLQMNSLKPQDTAVYYCAATNYWIEYAPGYGLYSVEDDYWGQGTQVTVSS,low polyreactivity
18,QVQLVESGGGLVQAGGSLRLSCAASGSTFGWYAMGWYRQAPGKERELVAAINSSGDRTYYADSVKGRFTISRDNAKINVYLQMNSLKPEDTAVYYCAATYWARNWRYDYWGQGTQVTVSS,high polyreactivity
19,QVQLVESGGGLVQAGGSLRLSCAASGSTFGWYAMGWYRQAPGKERELVAAIRRTGSTYYADSVKGRFTISRDNAKNTVYLQMNSLKPEDTAVYYCNAKYPLYLTGYDYWGQGTQVTVSS,low polyreactivity
20,QVQLVESGGGLVQAGGSLRLSCAASGSTFGWYAMGWYRQAPGKERELVAAISTSGGSSYYADSVKGRFTISRDNAKNTVYLQMNSLKPEDTAVYYCNGYYRRYSITFDRYDYWGQGSQVTVSS,high polyreactivity
21,QVQLVESGGGLVQAGGSLRLSCAASGSTFGWYAMGWYRQAPGKERELVATISSGGSTYYADSVKGRFTISRDNAKNTVYLQMNCLKPEDTAVYYCAADYLTPWVYWFSYGLDYWGQGTQVTVSS,low polyreactivity
